B1: 040716-F05 (protein)
chain: MALPVTALLLPLALLLHAARPDEIVLTQSPATLSLSPGERATLSCSASSSVSYMHWYQQKPGQAPRLLIYDTSKLASGIPARFSGSGSGTDFTLTISSLEPEDVAVYYCFQGSVYPFTFGQGTKLEIKRGGGGSGGGGSGGGGSQVQLQESGPGLVKPSQTLSLTCTVSGGSISTSGMGVGWIRQHPGKGLEWIGHIWWDDDKRYNPALKSRVTISVDTSKNQFSLKLSSVTAADTAVYYCARMELWSYYFDYWGQGTLVTVSSLEGKPIPNPLLGLDSTGSGEDLKNVFPPEVAVFEPSKAEIAHTQKATLVCLATGFYPDHVELSWWVNGKEVHSGVCTDPQPLKEQPALNDSRYCLSSRLRVSATFWQNPRNHFRCQVQFYGLSENDEWTQDRAKPVTQIVSAEAWGRADCGITSASYHQGVLSATILYEILLGKATLYAVLVSALVLMAMVKRKDSRGRAKRSGSGATNFSLLKQAGDVEENPGPTSTMALPVTALLLPLALLLHAARPDIQMTQSPSSLSASLGERVSLTCRATQELSGYLSWLQQKPDGTIKRLIYAASTLDSGVPKRFSGNRSGSDYSLTISSLESEDFADYYCLQYAIYPYTFGGGTKLEIKGGGGSGGGGSGGGGSEVQLQQSGPELVKPGASVKMSCKASGYTFTSYFIHWVKQKPGQGLEWIGFINPYNDGSKYNEKFKGKATLTSDKSSSTAYMELSSLTSEDSAVYYCTRDDGYYGYAMDYWGQGTSVTVSSTREQKLISEEDGSGIQNPDPAVYQLRDSKSSDKSVCLFTDFDSQTNVSQSKDSDVYITDKCVLDMRSMDFKSNSAVAWSNKSDFACANAFNNSIIPEDTFFPSSDVPCDVKLVEKSFETDTNLNFQNLSVIGFRILLLKVAGFNLLMTLRLWSSRAKRSGSGVKQTLNFDLLKLAGDVESNPGPSRGHMTEYKPTVRLATRDDVPRAVRTLAAAFADYPATRHTVDPDRHIERVTELQELFLTRVGLDIGKVWVADDGAAVAVWTTPESVEAGAVFAEIGPRMAELSGSRLAAQQQMEGLLAPHRPKEPAWFLATVGVSPDHQGKGLGSAVVLPGVEAAERAGVPAFLETSAPRNLPFYERLGFTVTADVEVPEGPRTWCMTRKPGA
modifications: Synthetic polynucleotide encoding a SIR
B2: 030217-K05 (protein)
chain: MALPVTALLLPLALLLHAARPDEIVLTQSPATLSLSPGERATLSCSASSSVSYMHWYQQKPGQAPRLLIYDTSKLASGIPARFSGSGSGTDFTLTISSLEPEDVAVYYCFQGSVYPFTFGQGTKLEIKRGGGGSGGGGSGGGGSQVQLQESGPGLVKPSQTLSLTCTVSGGSISTSGMGVGWIRQHPGKGLEWIGHIWWDDDKRYNPALKSRVTISVDTSKNQFSLKLSSVTAADTAVYYCARMELWSYYFDYWGQGTLVTVSSLEGKPIPNPLLGLDSTGSGEDLKNVFPPEVAVFEPSKAEIAHTQKATLVCLATGFYPDHVELSWWVNGKEVHSGVCTDPQPLKEQPALNDSRYCLSSRLRVSATFWQNPRNHFRCQVQFYGLSENDEWTQDRAKPVTQIVSAEAWGRADCGITSASYHQGVLSATILYEILLGKATLYAVLVSALVLMAMVKRKDSRGRAKRSGSGATNFSLLKQAGDVEENPGPTSMALPVTALLLPLALLLHAARPDIVMTQSHKFMSTSVGDRVSVTCKASQNVGNNVAWYQQKPGQSPKVLIYSASYRYSGVPDRFTGSGSGTDFTLTISNVQSEDLAEYFCQQYNTYPFTFGSGTKLEIKGGGGSGGGGSGGGGSEVQLEESGGGLVQPGGSMKLSCVASGFTFSNYWMNWVRQSPEKGLEWVAEIRFKSHNYATHFAESVKGRFTISRDDSKSSVYLQMNNLRAEDTGIYYCTRRIGNSDYDWWYFDVWGAGTSVTVSSASTREQKLISEEDGSGIQNPDPAVYQLRDSKSSDKSVCLFTDFDSQTNVSQSKDSDVYITDKCVLDMRSMDFKSNSAVAWSNKSDFACANAFNNSIIPEDTFFPSSDVPCDVKLVEKSFETDTNLNFQNLSVIGFRILLLKVAGFNLLMTLRLWSSRAKRSGSGVKQTLNFDLLKLAGDVESNPGPSRGHMTEYKPTVRLATRDDVPRAVRTLAAAFADYPATRHTVDPDRHIERVTELQELFLTRVGLDIGKVWVADDGAAVAVWTTPESVEAGAVFAEIGPRMAELSGSRLAAQQQMEGLLAPHRPKEPAWFLATVGVSPDHQGKGLGSAVVLPGVEAAERAGVPAFLETSAPRNLPFYERLGFTVTADVEVPEGPRTWCMTRKPGA
B3: 063016-E01 (protein)
chain: MALPVTALLLPLALLLHAARPDEIVLTQSPATLSLSPGERATLSCSASSSVSYMHWYQQKPGQAPRLLIYDTSKLASGIPARFSGSGSGTDFTLTISSLEPEDVAVYYCFQGSVYPFTFGQGTKLEIKRGGGGSGGGGSGGGGSQVQLQESGPGLVKPSQTLSLTCTVSGGSISTSGMGVGWIRQHPGKGLEWIGHIWWDDDKRYNPALKSRVTISVDTSKNQFSLKLSSVTAADTAVYYCARMELWSYYFDYWGQGTLVTVSSLEGKPIPNPLLGLDSTGSGEDLKNVFPPEVAVFEPSEAEISHTQKATLVCLATGFYPDHVELSWWVNGKEVHSGVCTDPQPLKEQPALNDSRYCLSSRLRVSATFWQNPRNHFRCQVQFYGLSENDEWTQDRAKPVTQIVSAEAWGRADCGFTSESYQQGVLSATILYEILLGKATLYAVLVSALVLMAMVKRKDSRGRAKRSGSGATNFSLLKQAGDVEENPGPTSATMALPVTALLLPLALLLHAARPDVQLQESGPGLVKPSQSLSLTCTVTGYSITSDYTWNWIRQFPGNKLEWMGYITYSGSTSYNPSLKSRNSITRDTSKNQFFLQLNSVTTEDTATYYCARLGRRYTMDYWGQGTSVTVSSGGGGSGGGGSGGGGSDIQMTQSSSSFSVSLGDRVTITCMASEDIYIRLAWYQQKPGNAPRLLISAATSLETGVPSRFSGSGSGKDYTLSITSLQTEDVGTYYCQQYWSSPWTFGGGTKLEINTREQKLISEEDGSGIQNPDPAVYQLRDSKSSDKSVCLFTDFDSQTNVSQSKDSDVYITDKCVLDMRSMDFKSNSAVAWSNKSDFACANAFNNSIIPEDTFFPSPESSCDVKLVEKSFETDTNLNFQNLSVIGFRILLLKVAGFNLLMTLRLWSSRAKRSGSGVKQTLNFDLLKLAGDVESNPGPSRGHMTEYKPTVRLATRDDVPRAVRTLAAAFADYPATRHTVDPDRHIERVTELQELFLTRVGLDIGKVWVADDGAAVAVWTTPESVEAGAVFAEIGPRMAELSGSRLAAQQQMEGLLAPHRPKEPAWFLATVGVSPDHQGKGLGSAVVLPGVEAAERAGVPAFLETSAPRNLPFYERLGFTVTADVEVPEGPRTWCMTRKPGA
modifications: Synthetic Immune Receptor (SIR)
B4: 010417-E08 (protein)
chain: MALPVTALLLPLALLLHAARPLEGKPIPNPLLGLDSTGSGEDLKNVFPPEVAVFEPSKAEIAHTQKATLVCLATGFYPDHVELSWWVNGKEVHSGVCTDPQPLKEQPALNDSRYCLSSRLRVSATFWQNPRNHFRCQVQFYGLSENDEWTQDRAKPVTQIVSAEAWGRADCGITSASYHQGVLSATILYEILLGKATLYAVLVSALVLMAMVKRKDSRGRAKRSGSGATNFSLLKQAGDVEENPGPTSTMALPVTALLLPLALLLHAARPDEIVLTQSPATLSLSPGERATLSCSASSSVSYMHWYQQKPGQAPRLLIYDTSKLASGIPARFSGSGSGTDFTLTISSLEPEDVAVYYCFQGSVYPFTFGQGTKLEIKRGGGGSGGGGSGGGGSQVQLQESGPGLVKPSQTLSLTCTVSGGSISTSGMGVGWIRQHPGKGLEWIGHIWWDDDKRYNPALKSRVTISVDTSKNQFSLKLSSVTAADTAVYYCARMELWSYYFDYWGQGTLVTVSSTREAAAKQIVLTQSPAIMSASPGEKVTISCSASSSVSYMYWYQQKPGSSPKPWIYRTSNLASGVPARFSGSGSGTSYSLTISNMEAEDAAAYYCQQYHSYPTTFGGGTKLEVKGGGGSGGGGSGGGGSEVQLVESGGGLVQPKGSLKLSCAASGFSFNTYAMNWVRQAPGKGLEWIAHIRSKSNNFATYYADSVKDRFSISRDASENILFLQMNNLKTEDTAMYYCVRQGGDFPMDYWGQGTSVTVSSTREQKLISEEDGSGIQNPDPAVYQLRDSKSSDKSVCLFTDFDSQTNVSQSKDSDVYITDKCVLDMRSMDFKSNSAVAWSNKSDFACANAFNNSIIPEDTFFPSSDVPCDVKLVEKSFETDTNLNFQNLSVIGFRILLLKVAGFNLLMTLRLWSSRAKRSGSGVKQTLNFDLLKLAGDVESNPGPSRGHMTEYKPTVRLATRDDVPRAVRTLAAAFADYPATRHTVDPDRHIERVTELQELFLTRVGLDIGKVWVADDGAAVAVWTTPESVEAGAVFAEIGPRMAELSGSRLAAQQQMEGLLAPHRPKEPAWFLATVGVSPDHQGKGLGSAVVLPGVEAAERAGVPAFLETSAPRNLPFYERLGFTVTADVEVPEGPRTWCMTRKPGA
B5: 040716-G02 (protein)
chain: MALPVTALLLPLALLLHAARPDEIVLTQSPATLSLSPGERATLSCSASSSVSYMHWYQQKPGQAPRLLIYDTSKLASGIPARFSGSGSGTDFTLTISSLEPEDVAVYYCFQGSVYPFTFGQGTKLEIKRGGGGSGGGGSGGGGSQVQLQESGPGLVKPSQTLSLTCTVSGGSISTSGMGVGWIRQHPGKGLEWIGHIWWDDDKRYNPALKSRVTISVDTSKNQFSLKLSSVTAADTAVYYCARMELWSYYFDYWGQGTLVTVSSLEGKPIPNPLLGLDSTGSGEDLKNVFPPEVAVFEPSKAEIAHTQKATLVCLATGFYPDHVELSWWVNGKEVHSGVCTDPQPLKEQPALNDSRYCLSSRLRVSATFWQNPRNHFRCQVQFYGLSENDEWTQDRAKPVTQIVSAEAWGRADCGITSASYHQGVLSATILYEILLGKATLYAVLVSALVLMAMVKRKDSRGRAKRSGSGATNFSLLKQAGDVEENPGPTSTMALPVTALLLPLALLLHAARPDTIVLTQSPASLAVSLGQRATISCRASESVDSYGNSFMHWYQQKPGQPPKLLIYLASNLESGVPARFSGSGSRTDFTLTIDPVEADDAATYYCQQNNYDPWTFGGGTKLEIKGGGGSGGGGSGGGGSEVQLQQSGPELVKPGASVKMSCKASGYTFTSYVMHWVKQKPGQGLEWIGYINPYNDGTKYNEKFKGKATLTSDTSSSTAYMELNSLTSEDSAVYFCARPIYFDNDYFDYWGQGTTLKVSSTREQKLISEEDGSGIQNPDPAVYQLRDSKSSDKSVCLFTDFDSQTNVSQSKDSDVYITDKCVLDMRSMDFKSNSAVAWSNKSDFACANAFNNSIIPEDTFFPSSDVPCDVKLVEKSFETDTNLNFQNLSVIGFRILLLKVAGFNLLMTLRLWSSRAKRSGSGVKQTLNFDLLKLAGDVESNPGPSRGHMTEYKPTVRLATRDDVPRAVRTLAAAFADYPATRHTVDPDRHIERVTELQELFLTRVGLDIGKVWVADDGAAVAVWTTPESVEAGAVFAEIGPRMAELSGSRLAAQQQMEGLLAPHRPKEPAWFLATVGVSPDHQGKGLGSAVVLPGVEAAERAGVPAFLETSAPRNLPFYERLGFTVTADVEVPEGPRTWCMTRKPGA
modifications: Synthetic polynucleotide encoding a SIR

Test system: target antigen-expressing cell line
Experiment: Jurkat NFAT-GFP assay, coculture with target cell lines expressing the respective target antigen (summary Table 10A)
Type: cell-based, human
Parameters: key: The signs +/−, +, 2+ etc. after the name of the cell lines indicate the relative degree of positivity on the Jurkat-NFAT-GFP assay as measured by the % GFP positive cells; +: relative degree of positivity on the Jurkat-NFAT-GFP assay as measured by the % GFP positive cells; 2+: relative degree of positivity on the Jurkat-NFAT-GFP assay as measured by the % GFP positive cells
Settings: relative % GFP positive cells; for NFAT-GFP ASSAY Positive Cell lines: RAJI: SIR-expressing Jurkat-NFAT-GFP cells cocultured with RAJI; for NFAT-GFP ASSAY Positive Cell lines: NALM6: SIR-expressing Jurkat-NFAT-GFP cells cocultured with NALM6; for NFAT-GFP ASSAY Positive Cell lines: HEL: SIR-expressing Jurkat-NFAT-GFP cells cocultured with HEL
Method in brief: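 Jurkat cells carrying an NFAT-site IL-2 promoter driving GFP were lentivirally transduced with SIRs, puromycin-selected, then cocultured with antigen-expressing target cells at E:T about 1:2 for about 4–18 hours. GFP induction was read by flow cytometry as % GFP-positive cells versus parental Jurkat-NFAT-GFP.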

Molecule | NFAT-GFP ASSAY Positive Cell lines: RAJI | NFAT-GFP ASSAY Positive Cell lines: NALM6 | NFAT-GFP ASSAY Positive Cell lines: HEL
B1 | RAJI (+/−) | – | –
B2 | – | (+) | –
B3 | 2+ | – | +/−
B4 | RAJI (+), NALM6 | (+), HEL (+) | (+), HEL (+)
B5 | RAJI (+/−) | – | –
